This data set in a line: soluble fraction after stress (log2 fold change); higher = more stays soluble; pooled small domains, quantitative proteomics. The following applies: stress: 50 degC. In a few lines:
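Pooled custom libraries of small protein domains were each held under stress at 50°C. The read-out, high-throughput quantitative proteomics, tracked how much of each protein stayed soluble. This is reported as a base-two log fold change used to indicate aggregation propensity. Higher values mean more protein remains in solution.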
For the sequence “HMIPDMSLELAMSEQTSKGDLYGDLPNDKLALMFNAISKKVPHTDDHKRKMVAIQTILESRAS”, the “soluble fraction (log2)” value was -0.251.
The same measure for “HMSLPALALRQADSLAFKQVIYHDRVVPFNTLARDFVLKLTGKPSYGGMTPEQVVGGWLLRPEVWQNEPM”: -0.0387; for “HMGKKYVPGMAVKLSAVPLYAASTSKVPSTHVTGTYYLWDDEVVRGRLRITNLKSRVGISGQVTGWIDKDR”: -1.23; for “HMDDAIAEKTGGAVSSVNQRQAILDHIREAYGIELESLRSTDIERYLDDPEIPEPVKDILRDRLRGAK”: 0.181.
With “HMKNTYTVVSGDTLWGIASRKLGGGSNWTKIYDANAATIESVANRRRGGRGSDHGHWIYPGTVLTI” the figure was -0.0158; with “HMDSTLDLVATQGGRLDQVLAEMIPEHSRNRLQHWIKAGRVLVDGQPVLEPKHKIYGGEDLAVRVD”, 0.278; with “HMSGDYRALYSSLPPERASSVVDALNVAGIPYRIQDSTGAIMVPAEQIYDARIRLAGQGLGK”, 0.227.
With “HMKFPPASDIRRMRKAIDVTQTELAKQSGVSQSTIAKIERGRISASYDTVVKLFETLDEMAK” the figure was -0.141.
As for “HMNGKWKLRIIKELLHSNIRFGQILKNIPDISPKVLSQQLKEMEEDGIIERIVISEMPPNVEYVLTDMGE”, the “soluble fraction (log2)” value was -0.789.
On to “HMNEMEFAQRLRQFRKAKNLTQQELADRLGVSNKSVSRWESGSYPDVGTLVALARALGVTVDELLDPKA”, for which the “soluble fraction (log2)” value worked out at 0.0532.
The same measure for “HMIDQNEDLLSGYIDEVLSQNPDKVNEYLKGKSGLIGFFMGQIKQKSATALDAALLKSQLETALEKLRIK”: 0.059; for “HMQPDDELVRLLLIKIFNDKQLKVNPAVINYLLRRIDRSFESINNFVKKIDEFSLEKGRKITVNLVSGFF”: -0.653; for “HMRMETRILTADESGIRLDAFLASRLAVSRSLAASLIDDGNVTLNGTVPKKKTAVNVGDILEVAMP”: -0.234.
Consider “HMDKSFLQSLHLIALGIVKNQMDPWELVNGWVEYYLKNKDKYIDHPNLKAVAVLKMKGLFIDHFRKS”, for which the “soluble fraction (log2)” value was -4.84.
On to “HMDRRSTTLQDIYTRIDAEEISEALELIPKLGEIEFEQNRAEIAEAAGVRPAVLDKLRKQAAKQENNKK”, for which the “soluble fraction (log2)” value was -0.0355.
As to “HMAVANEAIANINMKEVKQAIHNLPEIFKNPFLLYFDGYKYHEIAEMLDEPLGTIKSRIHFARKLLKSHI”, the “soluble fraction (log2)” value is -0.674.
The same measure for “HMDRMINYSPIVAKVPQDDYTTKVYNIPIYSELTVVDKISEPEPLIAPIYRFKYITPEDEEIEFDIPV”: 0.0278.
With “HMEVGKRIAEIRKENRMSQEQFGQLFHVTRQTVSNWENAKSYPDLQTLVKISELFEITMDELLK” the figure was -0.511; with “HMFEPLTDREREVLQALADGLSDKEIAERLYISPATVRTHITAILGKLDANSRLQAVVVAARHNLVTL”, -0.0803.
The same measure for “HMVQDDDPNSVAKFIDQVIESNPEQVEQYRSGKEKVFNFFLGQTMRLSKGKANPDLVSELLKEKLS”: 0.0395.
Take “HMNSSLLGKRIKSLREDHDLTQKELSLMIGLTPKMISFYENNQRTPPLDILLKLAKIFEVSVDYLIGYA”: the “soluble fraction (log2)” value is -0.551.
With “HMSTPENLGGRNTAKARISWLENGVKQELESDFPAAEVVKLSSRFGGEVPELTVIRPSLEDIYLKMIG” the figure was 0.0409; with “HMRGGKGTVPDVTGMDAAAAVRILEKAGMNVAYIRGAGFVAEQTPAAGTKLKKGDKAYITLSWK”, -0.0707.
As for “HMIPEGKWMEDPISEGQIKFIETLIKQAIDSGQDALGAEAKQYLSSGEATKGNASSMIDKLKDAL”, the “soluble fraction (log2)” value stood at 0.243.
With “HMYPQLIGFKVIDEDKGEVGVVKEVSESMHQILLTVMKGKKEILIPLAEEFITKVNRHKKELFMVLPDG”, the “soluble fraction (log2)” value was determined as 0.502.
With “HMTRAEVQALLEKQAKDFEVEVVHRGWKKTVQTPEFAGWYSQQPAEIKALAESDDPAVAIRMLDLFSGTK” the figure was -0.0852; with “HMPKHDWDAFAGAIARRVHDHGMPVSQGELVRDMMDWFAGRKDFPPPDERTVRRKVSAIWRELNG”, -1.02.
With “HMAPKSALKIIEQISNNPRATMTDLANLTGYSRRWVAQTIKRLQEENIIKRIGSDKSGYWEIIG” the figure was -0.321; with “HMNRYPIQTEVHAFNDDIIKEAINFEMSRGGQIFFVNNRIPQLYELENTIHRLVPDARVVIGHGQMP”, -0.188.
The same measure for “HMKGTVLAPGIILNADDQRFTYLQEDVASVAKDGAAIVLKQGDEVDFIADGQTAKQIYLTKT”: 0.0649; for “HMINLVPFELKFITAQVLDDIIKKIGINADTIILDINPKKIWVYAGEQELSDIQNIVKNVDVEDNI”: -0.443; for “HMQQLDDDTVAYVADNGIAVKSKNGKELSVDTSGLSYDIIMDMFRNLPRNGDFFSSKYWSDNIQKAQAR”: 0.41.
Take “HMRDGYEKPTEVGEGGRNPAMLSYIGHLRAKGHLSEEDIRSMAHGFNATTFDPPLDRDEVDGLVSRY”: the “soluble fraction (log2)” value was 0.124.
The same measure for “HMSVFGMEIGKTTEAEAGRMYRLNKEQLNPYSGGYQYSVNPKAIDFSGLEQVTLIFDEKKVLVYVQAV”: -0.0837; for “HMATETMGMIIRRLRREHGLTQEELAASIGVTAQAVSKWEKDLGMPDISQIVPLAGAFNVRTDVLFGLE”: -0.98.
With “HMPRPRIHSVVRGDTLYGISRQYGVAMSKLASLNGLKSPYRIMVGRSLRLPSAIEAERDRTAREVVQ” the figure was -1.45.
The same measure for “HMEATVGSRVRLARIGLTLTQKQLAQAVGVSANHLAMVERGSKHASEDLLQRIATATHTTYEWLMGTSEHQ”: -0.845; for “HMTKRTEPSILQNFDTEIAELIAKNRGISIMDALRIFLASKTHEMLENDEMKLWYFSPLAVFDMWENE”: 0.088.
For “HMKLTTRQTEIINIVKAEQPISGEKIAQNLGLSRATLRNDLSILTMTGLLDAKPKVGYFYTGQ”, the “soluble fraction (log2)” value is -0.447.
The same measure for “HMVDLANIDPIASSIKLNGAEADASFNTLEDRRVSVSGSFEENKNYTMEYTFKDYAGGSVTGTLDFKTLA”: 0.137; for “HMKSVFQPIYEDLLSRIQDGRLLPGMPLPSENALAVQYGTSRPTIRRAIGLLVEKSLVIRQPGIGSIVAS”: -1.17; for “HMELGRQDSAQLGRWAAGILAKNGKKITGRTMEFFLSRTGDDMENISSELEKLISYTLGREVITEEDIEAV”: -0.351.
With “HMLTGISALKPTEAFPDEIFYEIFEIEDNIERTQYIESLRNTARQLKRVTEFNNLYKSFVLDYAQRQKQ” the figure was -1.51.
With “HMRAAKSEDTRTRLIEGGMALFGQKGYNATGIKDITDAAGVPKGSFYNYFASKEDFGAEIIHSY” the figure was 0.122; with “HMDEAAGVLTQLRAFIAASNLSPGLRLPPERELAEQLGVTRAELRKALAVLEAEGLLWRQVGKGTFYGARP”, -0.481.
Turning to “HMNQASLTYSEFIANVESKAITRVTISGDTISGILADGKPFQTIYPMADLELLPILRRSGVDINVKEVQ”, the “soluble fraction (log2)” value was -0.117.
With “HMNYSIVNVGFNNKSLFLRSAPGYSASRLLLPFATERAFVRETLSNGWSRVIVRGTEGYLPTEYVAD” the figure was 0.179; with “HMTVLPTENDAKALVGLNEDEAVKIIEGNGWTYRIGSRDGEQFMLTEDYSTSRLTLGIEKSIVVTATI”, -0.151.
With “HMEVAASEQRDNLWALARRVLSGEQYDVLYLRYVEDFSVAQIADVVGKTQTHVKVLLFRGRNNLGSRLRS” the figure was 0.199; with “HMRTAELEVWDDDELNDVVKLIQNNHNINTLKLRFQENVSFSGLSLIAAVLTKQSIILEIEY”, 0.0488.
“HMRMYDVNEYSDEELHRILDLSSPTDSELEARILQMIQKYKYTNGGDNEKMAVFFENIYHHFFD”: the “soluble fraction (log2)” value was -1.5.
As for “HMAEAIVMSTAAPVKSSPDPQSKDIFVLHEGTKVAVGDSLGDWREIRIADGNKGWVLVSAIEMI”, the “soluble fraction (log2)” value is 0.0979.
In the case of “HMRIASANAIYDELLNKRDDAKLAELKQEDINLYALYILQNGSADERAALENTQGIDVVLKEIINLQNG”, the “soluble fraction (log2)” value is -0.309.
For the sequence “HMRQYPSGVFKEEGVKAVYIHAGTPFLVIAAQYKIPLARLFEWNNLLPSTEARISQVIYLERPG”, the “soluble fraction (log2)” value was -3.67.
“HMAKLTPDQQELRAIRIELQMSQPDFADAININVPRLSSYEYGRTAGVPTSIMEAARELKRSMSR”: the “soluble fraction (log2)” value is -0.811.
The same measure for “HMQGDHELSQRILSYLSEQGGSSPLTDKASPEEIYRIFRVSKKKYKQALGNLYKSKSIIILADKIQLL”: -0.736; for “HMRSRHYRFSTPFLDRLIAEIDWNSDNALSIFNQKLVHFDFLKYFSAIQPGSIVEIENLNFIWTGKRLEAH”: -2.55.
With “HMEAEGLDFAPMPGEIGKKLWQEVSKEAWAGWLKHQTMLVNENRLSFVDPAARKYLTEQTEAYFFG” the figure was 0.131.
With “HMVKGIVPNLIGKTQDEAKQMAEEYGFSIGTVSEKASDKPKGTVIEQSPKAGAKASGVTSINIVVSDGS” the figure was -0.0342; with “HMVDLLDETLIEFYAFANNLIKDLETNSEKYGGMSQFEKELIFNEQITQYQRKLKIDLQDEVG”, -1.54.
For the sequence “HMQRIFIDNHDRILYYSNPAGYIAGKEAVVDTMFQTQELERFLQKQSLSIRWEDGVYDRLLLGQ”, the “soluble fraction (log2)” value amounted to 0.016.
For “HMSKQVDVVIYILENTKAADNTYIGTYRKTADGAGVSLDTATKVMRKLQENNFIKKVQNGVYQISPLIMM”, the “soluble fraction (log2)” value is -0.889.
The same measure for “HMWDRFGELDSAEEINRIAAAELREGDIDALKVLAEENGLDKDDVEDYIDRLIDELTTPELAAIGKLDV”: 0.0934; for “HMHDEKHHQLANEIARKWAALRGNRDFAAADELKNLAAEAGVELQATKQAVGQGALAKLKENFDPVKLEAL”: 0.188.
The same measure for “HMSANVSMEEALRRTSQAHSLAGKWMRRVLQMAQGRDLIEQMQREAQEAHLPELIGMSVQLEFIRRG”: -0.11.
As for “HMIDIIEYIISEESKGLRADQGIALQNPQYSRSLIQKWIKKGSVLVNNKIIRTKEILLEGDKISITPEENI”, the “soluble fraction (log2)” value was -0.384.
Consider “HMDTIASESVRNRIEELISNENPKKPLSDQALVKMLQEFDIKIARRTVAKYREMLKIPPSSKRKQV”, for which the “soluble fraction (log2)” value was 0.0652.
The same measure for “HMGDTISVPAVRTLAYNKAMDILNAEGLKGIVADSVYDNHTAPGTVIEQNPKAGTIVKEGREVFLTIHA”: 0.103; for “HMQQSQLDDIKSVVGGDEGYNKLREWTQANVPDETLKAFDKILDTQDPTMIKVAVEGFAAQMRQAE”: -0.36.

Values taken from the domain aggregation screens of Martell et al. (2025).
